Experiment in all cases: cell-based or functional assay
Assay [1] deals with SARS-CoV-2 Delta Spike antigen (SARS-CoV-2 Delta).
Assay [2] addresses T1, SARS-CoV-2 Omicron BA.4/5 spike (SARS-CoV-2 Omicron BA.4/5).
The target in assay [3] is SARS-CoV-2 Omicron XBB.1.1 spike (SARS-CoV-2 Omicron XBB.1.1).
Assay [4] deals with SARS-CoV-2 Delta Spike antigen (SARS-CoV-2 Delta). This is another data set of the same source.
Assay [5] concerns the target T1, SARS-CoV-2 Omicron BA.4/5 spike. The source holds these as a separate data set.
Assay [6] shares this target. The source holds these as a separate data set.

Where two headings read alike, the source gives them in different places.

B1: Bispecific 1 (bispecific antibody)
heavy 1: not shown
light 1: EIVLTQSPGTLSLSPGERATLSCRASQSVRRNYFAWYQQKRGQAPRLLIYDASTRATGIPDRFSGSGSGTDFTLTISRLEPEDFAVYYCQQYDSSPPMYIFGQGTKLEIKSSASTKGPSVFPLAPSSKSTSGGTAALGCLVKDYFPEPVTVSWNSGALTSGVHTFPAVLQSSGLYSLSSVVTVPSSSLGTQTYICNVNHKPSNTKVDKKVEPKSC
heavy 2: not shown
light 2: QSALTQPPSASGSPGQSVTISCSGTSSDVGGYNFVSWYQHHPGKAPKILIYEVTKRPSGVPDRFSGSKSGNTASLTVSGLQAEDEADYYCSSYGGTNNLLFGGGTKLTVLGQPKAAPSVTLFPPSSEELQANKATLVCLISDFYPGAVTVAWKADSSPVKAGVETTTPSKQSNNKYAASSYLSLTPEQWKSHRSYSCQVTHEGSTVEKTVAPTECS
For the molecule B1, the “Live virus neutralization IC50” value was determined as 14.2 µg/mL in assay [1] and 4.85 µg/mL in assay [2]. For the same molecule, the “Pseudovirion neutralization IC50” value in assay [3] amounted to 11.9 µg/mL; in assay [4], 0.307 µg/mL; in assay [5] it was 5.14 µg/mL.

B2: Parental mAb 1 (antibody, V domains shown)
VH: QEQLVQSGAEVKKPGASVKVSCKSSGFTFSYFYLHWVRQAPGQGLEWMGIINPRGDGTRYAQKFQGRVTMTRDASTGTLYMELRSLRSEDTAVYYCARGADHGAFDIWGQGTMVTVSS
VL: EIVLTQSPGTLSLSPGERATLSCRASQSVRRNYFAWYQQKRGQAPRLLIYDASTRATGIPDRFSGSGSGTDFTLTISRLEPEDFAVYYCQQYDSSPPMYIFGQGTKLEIK
notes: also called antibody according to the invention; first parental antibody
Regarding B2, the “Pseudovirion neutralization IC50” value in assay [6] was determined as 4.13 µg/mL; in assay [3], 4.85 µg/mL; in assay [5], 4.13 µg/mL. Further, the “Live virus neutralization IC50” value in assay [2] is 2.92 µg/mL.

B3: Parental mAb 2 (antibody, V domains shown)
VH: QMQLMQSGAEVKKPGASVTVSCKASGDTFSDYRIHWVRQAPGQGLEWMGRMNPKSGDTNFAQKFQGRVTMTRDMSINTAYMTLSGLTFDDTALYYCASLLIVGGFDPLDDFEVWGQGTMVTISS
VL: QSALTQPPSASGSPGQSVTISCSGTSSDVGGYNFVSWYQHHPGKAPKILIYEVTKRPSGVPDRFSGSKSGNTASLTVSGLQAEDEADYYCSSYGGTNNLLFGGGTKLTVL
For B3, the entries for the “Live virus neutralization IC50” value in assay [1] and in assay [2] were 16.1 µg/mL and 4.62 µg/mL, respectively. The “Pseudovirion neutralization IC50” value in assay [3] was determined as 20.6 µg/mL; in assay [4], 0.488 µg/mL; in assay [5], 7.56 µg/mL.

These data come from patent US20260234222A1 (LEYDEN LABORATORIES B V, published 2026).
